Values quoted from earlier work in PMC4547496.

Columns and labels:
[1] = molecular target: BAG family nucleotide exchange factor (Homo sapiens) (UniProt Q99933); test: FCPIA
Gαo (Homo sapiens) = Gαo (Homo sapiens) (UniProt P09471); test: FCPIA
UniProt P09471, sequence (P09471 2-354): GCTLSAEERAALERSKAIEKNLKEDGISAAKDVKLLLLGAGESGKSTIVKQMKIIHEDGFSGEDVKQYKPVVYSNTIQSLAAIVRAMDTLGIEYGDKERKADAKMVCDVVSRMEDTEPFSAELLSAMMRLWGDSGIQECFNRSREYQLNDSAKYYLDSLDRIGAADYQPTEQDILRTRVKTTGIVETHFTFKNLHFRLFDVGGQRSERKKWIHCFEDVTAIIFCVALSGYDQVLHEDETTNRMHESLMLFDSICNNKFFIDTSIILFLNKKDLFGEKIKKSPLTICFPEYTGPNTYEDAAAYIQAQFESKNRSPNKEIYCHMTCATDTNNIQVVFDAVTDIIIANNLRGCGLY

UniProt Q99933, sequence (Q99933 whole entry): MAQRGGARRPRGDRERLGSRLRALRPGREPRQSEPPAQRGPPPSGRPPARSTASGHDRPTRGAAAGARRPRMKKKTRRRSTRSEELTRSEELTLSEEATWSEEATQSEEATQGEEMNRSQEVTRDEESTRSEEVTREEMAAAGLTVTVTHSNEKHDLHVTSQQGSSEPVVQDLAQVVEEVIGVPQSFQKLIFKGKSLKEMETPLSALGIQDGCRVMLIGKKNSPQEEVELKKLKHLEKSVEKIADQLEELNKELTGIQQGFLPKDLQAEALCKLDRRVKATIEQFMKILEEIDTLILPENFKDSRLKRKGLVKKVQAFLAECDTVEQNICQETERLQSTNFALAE

| Kd [1] | Kd (Gαo (Homo sapiens)) | Substance |
| --- | --- | --- |
| 1000 nM | – | Hsp70 (from UniProt P0DMV8) |
| – | 4 nM | RGS4 (from UniProt P49798) |
